Assay results as given in US20190328788A1 (GENAGON THERAPEUTICS, published 2019).
Ends that are not written are not given here.

Experiments:
Test in all cases: ELISA, peptide on streptavidin plate, ligand 100 ng/ml
[1] = biological target: T1, Growth and Differentiation Factor 15 (GDF15) (UniProt Q99988 197-308, limits assumed)
T1 construct: also called MIC-1; MIC1
T1 sequence (looked up): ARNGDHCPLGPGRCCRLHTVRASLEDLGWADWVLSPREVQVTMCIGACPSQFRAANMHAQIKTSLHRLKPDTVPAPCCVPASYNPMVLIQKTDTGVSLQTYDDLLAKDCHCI
Experimental: (§1) Biotinylated synthetic peptide fragments from CLPTM1 (JPT peptides, Germany) were immobilized in a streptavidin 96 well plate (#15500 Pierce) at 1 μM in PBS over night at +4° C. Plate was then washed 4 times in 300 μl PBS with 0.05% tween-20 (wash buffer). The plate was then blocked with PBS 1% BSA and 0.05% tween-20 (blocking buffer) for 1.5 hours at room temperature, then washed 4 times in wash buffer. Ligands GDF15, TGFb1, TGFb2 and TGFb3 (Abcam) were added in blocking buffer at 100 ng/ml and incubated at room temperature for 2 hours. The plate was then washed 8 times in 300 μL wash buffer with 2× NaCl. An anti-GDF15 antibody was added at 1 μg/ml (R&D Systems, goat polyclonal) or a pan-specific anti-TGFb antibody (R&D Systems, mouse 1 D11), and the plate incubated in blocking buffer for 1 hour at room temperature followed by washing with 4×300 μl wash buffer. HAF017 anti-goat-HRP antibody (to detect the anti-GDF15 antibody) or Santa Cruz sc-2005 Goat anti-mouse-HRP (to detect the pan-specific anti-TGFb antibody) was added and the plate incubated for 1 hour in blocking buffer followed by a wash. TMB substrate was added and stopped after 15 minutes with H₂SO₄. OD 450-620 was measured in an ELISA reader.

[2] = biological target: T2, transforming growth factor-beta 1 (TGF-β1) (UniProt P01137 279-390)
T2 construct: also called TGFb1; TGFB1
T2 sequence (P01137 279-390 limits assumed): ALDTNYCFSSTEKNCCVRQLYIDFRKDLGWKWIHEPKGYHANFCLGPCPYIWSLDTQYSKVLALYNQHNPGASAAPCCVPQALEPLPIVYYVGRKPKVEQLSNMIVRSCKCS
Experimental: as §1

[3] = biological target: T3, transforming growth factor-beta 2 (TGF-β2) (UniProt P61812 303-414)
T3 construct: also called TGFb2; TGFB2
T3 sequence (looked up): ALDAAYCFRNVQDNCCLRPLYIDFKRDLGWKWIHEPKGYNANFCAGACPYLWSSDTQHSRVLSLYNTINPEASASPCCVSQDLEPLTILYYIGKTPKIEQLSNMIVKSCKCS
Experimental: as §1

[4] = biological target: T4, transforming growth factor-beta 3 (TGF-β3) (UniProt P10600 301-412)
T4 construct: also called TGFb3; TGFB3
T4 sequence (looked up): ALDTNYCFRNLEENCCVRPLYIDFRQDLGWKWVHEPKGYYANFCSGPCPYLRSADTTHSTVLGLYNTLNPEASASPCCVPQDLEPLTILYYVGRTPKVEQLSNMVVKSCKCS
Experimental: as §1

Binder | ELISA OD450 [1] [OD450] | ELISA OD450 [2] [OD450] | ELISA OD450 [3] [OD450] | ELISA OD450 [4] [OD450]
AAAQEADGARSAVVAAGGGSG (also: biotinylated, site not given here) [CLPTM1 peptide fragment of SEQ ID NO: 8] | 0.022 | 0.012 | 0.01 | 0.015
LWRWQLYAAQSTKSPWNFLGDELYEQSDEEQDSVKVALLETNP (also: biotinylated, site not given here, also called peptide 26; GT2) [CLPTM1 peptide fragment of SEQ ID NO: 33] | 0.021 | 0.177 | 0.009 | 0.007
NAWQVIKGVLFRIFIIWAISSWFRRGPAPQDQAGPGGA (also: biotinylated, site not given here, also called peptide 28; GT4) [CLPTM1 peptide fragment of SEQ ID NO: 35] | 0.029 | 0.098 | 0.031 | 0.027
ARSAVVAAGGGSSGQVTSNGSIGRDPPAETQPQNPPAQPA (also: biotinylated, site not given here, also called peptide 27; GT3) [CLPTM1 peptide fragment of SEQ ID NO: 34] | 0.016 | 0.058 | 0.123 | 0.003
VSGDYYPIIYFNDYWNLQKDYYPINESLASLPLRVSFC (also: biotinylated, site not given here, also called peptide 31; GT7) [CLPTM1 peptide fragment of SEQ ID NO: 38] | 0.383 | 1.01 | 0.717 | 0.091
TKSGFHPDPRQKALYRRLATVHMSRMINKYKRRRFQKTKN (also: biotinylated, site not given here, also called peptide 30; GT6) [CLPTM1 peptide fragment of SEQ ID NO: 37] | 0.209 | 0.389 | 0.483 | 0.613
SGDYYPIIYFNDYWNLQKDYYPINESLASLPLRVSFCPLS (also: biotinylated, site not given here, also called peptide 25; GT1) [CLPTM1 peptide fragment of SEQ ID NO: 32] | 0.779 | 2.1 | 1.63 | 0.3
RIFIIWAISSWFRRGPAPQDG (also: biotinylated, site not given here) [CLPTM1 peptide fragment of SEQ ID NO: 11] | 0.026 | 0.008 | -0.003 | 0.003
QNPPAQPAPNAWQVIKGVLFG (also: biotinylated, site not given here) [CLPTM1 peptide fragment of SEQ ID NO: 10] | 0.042 | 0.026 | 0.013 | 0.006
DTLMNLHVYISEHEHFTDFNATSALFWEQHDLVYGDWTSG (also: biotinylated, site not given here, also called peptide 29; GT5) [CLPTM1 peptide fragment of SEQ ID NO: 36] | 0.174 | 1.64 | 0.838 | 0.095
SGDYYPIIYFNDYWNLQKDYYPINESLA (also: biotinylated, site not given here, also called peptide 33; GT9) [CLPTM1 peptide fragment of SEQ ID NO: 40] | 0.518 | 2.81 | 2.09 | 0.399
PLDQYVKFDAVSGDYYPIIYFNDYWNLQKDYYPINESLA (also: biotinylated, site not given here, also called peptide 32; GT8) [CLPTM1 peptide fragment of SEQ ID NO: 39] | 0.137 | 1.86 | 0.91 | 0.074
QAGPGGAPRVASRNLFPKDTG (also: biotinylated, site not given here) [CLPTM1 peptide fragment of SEQ ID NO: 12] | 0.034 | 0.003 | -0.006 | 0.004
